By Kd is commonly meant a measure of binding affinity in units of concentration. A lower Kd goes with higher affinity.

The experiment deals with T1, human insulin receptor (HIR) (human, UniProt P06213 28-1382, limits assumed).
T1 construct: Detergent-solubilised receptor; The natural receptor is an alpha2-beta2 heterotetramer cleaved from one precursor
The experiment in a line: 125I-insulin displacement, solubilised HIR.

Starred links: 1 amine or outer side, 2 acyl side, 3 side chain; linkers in the order of their positions; H or OH if unused. Positions of bridges follow the written chain, without caps; N, C: chain ends. Non-standard residues stand in square brackets, D forms with d. Primed or numbered codes have the meaning given here. Chains are numbered I, II in the order given. No end group written: not given here. Lig′ = lysine with a 2-aminohydroxyacetyl group (CO-CH2-O-NH2) on the side-chain amino group, O=C(CON[*:3])NCCCC[C@H](N[*:1])C(=O)[*:2]; Hyp = O=C(O)[C@@H]1C[C@@H](O)CN1; Tic = O=C(O)[C@@H]1Cc2ccccc2CN1; linker 14 = not defined here; Ac6c = NC1(C(=O)O)CCCCC1

B1: S237 (peptide)
peptide: WLQRNANFYDWFVAELG
The molecule B1 returned a Kd of 850 nM.

B2: S233 (peptide)
peptide 1: FHENFYDWFVRQVSKKX
peptide 2: SDGFYNAIELLSX
modifications: not fully specified; C-terminal Lig′ coupled to linker 14
notes: heterodimer F1-F2, C-C
In turn, B2 came in with a Kd of 260 nM.

B3: S268 (peptide)
peptide: RD[Hyp]FYDWFDD[dI]
notes: printed: RD-Hyp-FYDWFDDi
For the molecule B3, binding was characterised by a dissociation constant (Kd) of 450 nM.

B4: S177 (peptide)
peptide: EHWNTVDPFYFTLFEWLRESG
Turning to B4, binding was put at a Kd of 2700 nM.

B5: S179 (peptide)
peptide: QSDSGTVHDRFYGWFRDTWAS
Molecule B5 displayed an equilibrium dissociation constant (Kd) of 540 nM.

B6: S171 (peptide)
peptide: CGFHENFYDWFVRQVSKK
notes: also called 3171 (so in the source)
B6: binding was put at a Kd of 2900 nM.

B7: S172 (peptide)
peptide 1: XFHENFYDWFVRQVSKK
peptide 2: XFHENFYDWFVRQVSKK
modifications: N-terminal Lig coupled to linker 14
notes: dimer, N-N
On to B7, for which binding was put at a Kd of 4800 nM.

B8: S265 (peptide)
peptide: TGHRLGLDEQFYWWFRDALSG
B8 gave a Kd of 110 nM.

B9: S293 (peptide)
peptide 1: XGGGFHENFYDWFVRQVSKK
peptide 2: XGGGFHENFYDWFVRQVSKK
modifications: not fully specified; N-terminal Lig′ coupled to linker 13
notes: dimer, N-N
The molecule B9 showed a Kd of 120 nM.

B10: S250 (peptide)
peptide: GRVDWLQRNANFYDWFVA
Molecule B10 had a Kd of 8900 nM.

B11: S264 (peptide)
peptide: IQGWEPFYGWFDDVVAQMFEE
B11 returned a Kd of 190 nM.

B12: S129 (peptide)
peptide: SSNFYQALMLLS
For the molecule B12, the Kd was 2900 nM.

B13: S236 (peptide)
peptide: DWLQRNANFYDWFVAELG
The molecule B13 returned a Kd of 100 nM.

B14: S107 (peptide)
peptide: FHENFYDWFVRAVSKK
In turn, B14 returned a Kd of 1000 nM.

B15: S235 (peptide)
peptide: VDWLQRNANFYDWFVAELG
The molecule B15 came in with a Kd of 53 nM.

B16: S242 (peptide)
peptide: ANFYDWFVAELG
B16 showed a Kd of 2000 nM.

B17: S292 (peptide)
peptide 1: XGGGFHENFYDWFVRQVSKK
peptide 2: XGGGFHENFYDWFVRQVSKK
modifications: not fully specified; N-terminal Lig′ coupled to linker 12
notes: dimer, N-N
Molecule B17 returned a Kd of 750 nM.

B18: S113 (peptide)
peptide: AHENFYDWFVRQVSKK
B18 yielded a Kd of 590 nM.

B19: S287 (peptide)
peptide: QAPSNFYDWFVREWDEE
In the case of B19, the Kd came to 5900 nM.

B20: S176 (peptide)
peptide: NGVERAGTGDNFYDWFVAQLH
B20 displayed a Kd of 470 nM.

B21: S257 (peptide)
peptide: RWPNFYGYFESLLTHFS
B21: the Kd was determined as 14000 nM.

B22: S234 (peptide)
peptide: RVDWLQRNANFYDWFVAELG
For B22, binding was put at a Kd of 130 nM.

B23: S256 (peptide)
peptide: [Ac6c]CLEEWGASL[Tic]QCSG
modifications: cysteine pairing not given here
For B23, binding was characterised by a dissociation constant (Kd) of 9000 nM.

B24: S118 (peptide)
peptide: SDGFYNAIELLS
B24: the affinity, expressed as Kd, was 2400 nM.

B25: S241 (peptide)
peptide: NANFYDWFVAELG
In turn, B25 returned a Kd of 1600 nM.

B26: S158 (peptide)
peptide: FHENFYDWFVRQVSK
notes: also called D117/H2C
The molecule B26 registered a Kd of 810 nM.

B27: S301 (peptide)
peptide 1: XDWLQRNANFYDWFVAEL
peptide 2: XDWLQRNANFYDWFVAEL
modifications: N-terminal Lig′ coupled to linker 14
notes: dimer, N-N
Regarding B27, binding was put at a Kd of 640 nM.

B28: S115 (peptide)
peptide: EFHENFYDWFVRQVSEE
As for B28, binding was put at a Kd of 650 nM.

B29: S178 (peptide)
peptide: EHWNTVDPFYQYFSELLRESG
On to B29, for which the Kd is 130 nM.

B30: S281 (peptide)
peptide: DLRVLCELFGGAYVLGYCSE
In turn, B30 displayed a Kd of 11000 nM.

B31: S249 (peptide)
peptide: GRVDWLQRNANFYDWFVAE
The molecule B31 had a Kd of 740 nM.

B32: S123 (peptide)
peptide: HPSTNQMLMKLFK
In the case of B32, the Kd came to 16000 nM.

B33: S294 (peptide)
peptide: DWLQRNANFYDWFVAELX
modifications: C-terminal Lig′
As for B33, binding was characterised by a dissociation constant (Kd) of 130 nM.

B34: S251 (peptide)
peptide: GRVDWLQRNANFYDWFV
As for B34, the affinity, expressed as Kd, was 5600 nM.

B35: S238 (peptide)
peptide: LQRNANFYDWFVAELG
B35 gave a Kd of 850 nM.

B36: S285 (peptide)
peptide: WLEHEWAQIQCELYGRGCTY
B36 returned a Kd of 830 nM.

B37: S168 (peptide)
peptide: AAAAFYDWFAAAAAKK
B37: the Kd came out at 3800 nM.

B38: S243 (peptide)
peptide: NFYDWFVAELG
On to B38, for which the Kd is 2000 nM.

B39: S218 (peptide)
peptide 1: AFYDWFAKK[Lig′]
peptide 2: AFYDWFAKK[Lig′]
modifications: linker I:10-II:10 via linker 14; not fully specified; reading uncertain
notes: dimer, C-C
Take B39: the affinity, expressed as Kd, was 11000 nM.

B40: S169 (peptide)
peptide 1: XFHENFYDWFVRQVSKK
peptide 2: XFHENFYDWFVRQVSKK
modifications: N-terminal Lig coupled to linker 12
notes: dimer, N-N
On to B40, for which the Kd came out at 580 nM.

B41: S105 (peptide)
peptide: FHENFYDWFVRQVAKK
B41 came in with a Kd of 310 nM.

B42: S112 (peptide)
peptide: FAENFYDWFVRQVSKK
In turn, B42 gave a Kd of 610 nM.

B43: S290 (peptide)
peptide 1: XGGGFHENFYDWFVRQVSKK
peptide 2: XGGGFHENFYDWFVRQVSKK
modifications: not fully specified; N-terminal Lig′ coupled to linker 7
notes: dimer, N-N
B43 gave a Kd of 900 nM.

B44: S262 (peptide)
peptide: PLCFLQELFGGASLGGYCSG
On to B44, for which the Kd amounted to 19000 nM.

B45: S226 (peptide)
peptide: QLEEEWAGVQCEVYGRECPS
As for B45, the Kd worked out at 1600 nM.

B46: S288 (peptide)
peptide: QSFYDYIEELLGGEWKK
B46 had a Kd of 4300 nM.

B47: S120 (peptide)
peptide: HDPFYSMMKSLLK
B47 yielded a dissociation constant Kd of 2000 nM.

B48: S106 (peptide)
peptide: FHENFYDWFVRQASKK
Regarding B48, binding was put at a Kd of 420 nM.

B49: S121 (peptide)
peptide: NSFYEALRMLSSK
B49: binding was characterised by a dissociation constant (Kd) of 3100 nM.

B50: S302 (peptide)
peptide: SDGFYNA[Ac6c]ELLSG
notes: printed: SDGFYNA-Acy-ELLSG
B50 came in with a Kd of 860 nM.

B51: S124 (peptide)
peptide: HPPLSELKLFLIKK
In turn, B51 had a Kd of 23000 nM.

B52: S119 (peptide)
peptide: SLNFYDALQLLAKK
As to B52, the Kd was 1800 nM.

B53: S260 (peptide)
peptide: LDRQFYRYFQDLLVGFM
As to B53, binding was characterised by a dissociation constant (Kd) of 2300 nM.

B54: S255 (peptide)
peptide 1: SDGFYNAIELLSGGGX
peptide 2: SDGFYNAIELLSGGGX
modifications: not fully specified; C-terminal Lig′ coupled to linker 14
notes: dimer, C-C
Regarding B54, the Kd turned out to be 1600 nM.

B55: S108 (peptide)
peptide: FHENFYDWFVAQVSKK
Molecule B55 gave a Kd of 750 nM.

B56: S248 (peptide)
peptide: GRVDWLQRNANFYDWFVAEL
B56 came in with a Kd of 63 nM.

B57: S122 (peptide)
peptide: HPTSKEIYAKLLK
In the case of B57, the dissociation constant (Kd) is 9300 nM.

B58: S174 (peptide)
peptide: PLAELWAYFEHSEQGRSSAH
B58 came in with a Kd of 16000 nM.

B59: S117 (peptide)
peptide: HETFYSMIRSLAK
As to B59, the Kd was 2700 nM.

B60: S229 (peptide)
peptide 1: SDGFYNAIELLSX
peptide 2: KHLCVLEELFWGASLFGYCSGKKX
modifications: not fully specified; C-terminal Lig′ coupled to linker 12
notes: heterodimer F2-F4, C-C
In the case of B60, the Kd is 44 nM.

B61: S170 (peptide)
peptide 1: CGFHENFYDWFVRQVSKK
peptide 2: CGFHENFYDWFVRQVSKK
modifications: bridge I:1-II:1; also: homodimer, N-N, linked at cysteines, type of link not given here
notes: dimer, N-N; also called 3170 (so in the source)
Regarding B61, the Kd worked out at 700 nM.

B62: S231 (peptide)
peptide 1: FHENFYDWFVRQVSKKGGGX
peptide 2: FHENFYDWFVRQVSKKGGGX
modifications: not fully specified; C-terminal Lig′ coupled to linker 14
notes: dimer, C-C
B62 returned a Kd of 270 nM.

For the origin of these results see US20030236190A1 (published 2003).
